The target in experiment [1] is T1, human kappa opioid receptor (human, UniProt P41145 1-380). As to the kind of experiment: cell-based or functional assay.
Another experiment has as its target T2, human mu opioid receptor (human, UniProt P35372 1-400).
T2 construct: human mu opioid receptor, stably expressed in HEK-293 cells; membrane preparations used; also called hMOPr; MOPr; source: HEK-293 cells stably expressing hMOPr, cell membranes
Put plainly: radioligand binding; displacement of 2.5 nM [3H]DAMGO (MOPr), 2 nM [3H]diprenorphine (DOPr) or 1 nM [3H]U69,593 (KOPr) from membranes of receptor-expressing HEK-293 cells; 25°C, 90 min, 100 mM Tris-HCl, 0.3% BSA; competitor 10^-12 to 10^-4 M; Ki from IC50 by Cheng-Prusoff. Particulars: one partner purified.

For experiment [2], the target named is T3, human delta opioid receptor (human, UniProt P41143 1-372).
T3 construct: human delta opioid receptor, stably expressed in HEK-293 cells; membrane preparations used; also called hDOPr; DOPr; source: HEK-293 cells stably expressing hDOPr, cell membranes
The experiment is described as above. Particulars: one partner purified.

Experiment [3] addresses T1, human kappa opioid receptor. The experiment is described as above. The settings on record: one partner purified.

Square brackets hold non-standard residues; d marks the D form. βAla = NCCC(=O)O

B1: LOR17 (c[Phe-Gly-(β-Ala)-D-Trp]) (peptide)
chain: cyclo(FG[βAla][dW])
SMILES: O=C1CNC(=O)[C@H](Cc2ccccc2)NC(=O)[C@@H](Cc2c[nH]c3ccccc23)NC(=O)CCN1
As for B1, in experiment [1], the “IC50 of inhibition of forskolin-induced cAMP accumulation, HEK-293/KOR cells” value was determined as 2.8 nM; the “IC50 of inhibition of forskolin-induced cAMP accumulation, U87-MG cells (endogenous KOPr)” value amounted to 3.1 nM; the “IC50 of inhibition of forskolin-induced cAMP accumulation, normal human astrocytes (endogenous KOPr)” value was determined as 3 nM. Moreover, in the experiment with human mu opioid receptor, the Ki was > 100000 nM. The Ki in experiment [2] was > 100000 nM. The molecule further displayed a Ki in experiment [3] of 1.19 nM.

A word on the Ki: it is the dissociation constant of the complex between target and ligand, obtained from inhibition or displacement.
